# The DeepSol protein solubility set
# Assay: soluble on expression in E. coli; label from the status in PepcDB or PDB records
row,Sequence,soluble on expression in E. coli
1,MGHHHHHHSHDRVNGVAKEYVIYGYGEPLLYPDFFKRIEGFDGKVVISTNGMLDSDILDLADKVGVSIDVNDKFRKGLEVEKALEVLRKLGERGIAEVVVTKDNLELLPAFFERIAEHGSGMLATNVVASNPAIYEQGVYFECSRITVEKVLGLDESILVEAIKDCSRGGGEALRRYKHLLKEVYSKGYSINLLAIFGRKGRVETAFKA,soluble
2,MGHHHHHHSHGTRAFGARRNTIDSTSSFSQFRNLSHRSLSIGRASGTQGSLDTGSDLGDFMDYDPNLLDDPQWPCGKHKRVLIFPSYMTTVIDYVKPSDLKKDMNETFKEKFPHIKLTLSKIRSLKREMRKLAQEDCGLEEPTVAMAFVYFEKLALKGKLNKQNRKLCAGACVLLAAKIGSDLKKHEVKHLIDKLEEKFRLNRRELIAFEFPVLVALEFALHLPEHEVMPHYRRLVQSS,soluble
3,MGHHHHHHSHGYRSVRERTSTSGTHRDREDSKFRRTRPLECQDALETAARAEGLSLDASMHSQLRILDEEHPKGKYHHGLSALKPIRTTSKHQHPVDNAGLFSCMTFSWLSSLARVAHKKGELSMEDVWSLSKHESSDVNCRRLERLWQEELNEVGPDAASLRRVVWIFCRTRLILSIVCLMITQLAGFSGPPTDLRKEGMNLQTLRLRSSNKHQRFPGLPRAPVYQKLLERMKH,soluble
4,MGHHHHHHSHHRFSINGHFYNHKTSVFTPAYGSVTNVRINSTMTTPQVLKLLLNKFKIENSAEEFALYVVHTSGEKQKLKATDYPLIARILQGPCEQISKVFLMEKDQVEEVTYDVAQYIKFEMPVLKSFIQKLQEEEDREVKKLMRKYTVLRLMIRQRLEEIAETPATI,not soluble
5,MGHHHHHHSHMAKQPTVLWAQRESLVYLTIEVDEAKIEELKGEGNKLHFQGSSKTDKYEATLEFFDEIDPASVKHTGSSTRVVEITVQKKTPAWWPRLLQNKGKVHWLKVDFGKWKDEDEDDEAEDAGAGIGGGMANGFDLNQYMSQMGGAGGADFGGLEDDEEDDDMPDLEDNEEEEGKNGTRA,soluble
6,MGHHHHHHSHMATSEILPSFVATMDASNFSFWQVLCSWLSNSPNYEEITKWYLGWKSMFSDQVLAHPSVKDKFNEALDIMNRAVSSNVGAYMQPGARENIAYLTHTERRKDFQYEAMQERREAENMAQRGIGVAASSVPMNFKDLIETKAEEHNIVFMPVIGKRHEGKQLYTFGRIVIYIDRGVVFVQGEKTWVPTSLQSLIDMAK,not soluble
7,MGHHHHHHSHMCSSGGPVDRAPDSSKDGKNHHKTMGHYNHNDSLRKTQINSLKNSVACPGAQKAITSSEAVDRFMPRTTQLQERKRRREDDRKLGTFLQTNPTGNEIMIGPLLPDISKVDMHDDSLNTTANLIRHKLKEVISSVPKPPEDKPEDVHTSRPLKQRRRI,soluble
8,MGHHHHHHSHMDKNVISVKIMEEKRDESTGVIYRKRIAICQNVVPEILRKVSILKVPNIQLEEESWLNPRERNMAIRSHCLTWTQYASMKEESVFRESMENPNWTEFIQRGRISITGVGFLNCVLETFASTFLRQGAQKGIRIMEMLLKEQCGAPLAE,not soluble
9,MGHHHHHHSHMEFVTNYTLEELKKRFTELGLEPYRAKQVFRWVYKKFVTDFEKMTDLGKKHRELLKEHFAFHPLEKLDRVEAPDAVKYLFKTKDGHILETVLIKERDHYTLCVSSQIGCAVGCTFCATALDGLKRNLSTAEIIDQYLQVQQDLGEEKIRNVVFMGMGEPLANYENVRKAVEIMVSPEGLDLSKRRITISTSGIVAQIKRMAQDPVMKEVNLAVSLNAVSQKKREELMPLTKTNTLEELMEVLKNYPLPKYRRITLEYVLIKGVNDSPNDAERLAKLIGRHKKKFKVNLIPFNPDPNLPYERPALTDIMKFQKVLWKYGISNFVRFSKGVEVFGACGQLRTQRLQLQRV,soluble
10,MGHHHHHHSHMEGTQETYTVAHEENVRFVSEAWQQVQQQLDGGPAGEGGPRPVQYVERTPNPRLQNFVPIDLDEWWGAAVPGENHQLFLVAAGRGRCYTADLSPGEKHGALPTHCAWLGAGHT,not soluble
11,MGHHHHHHSHMEYSYIPSFALYNNADMFQFFPRNKRLSTHQKSCLDEHARKMAVFMMKRQEEYRYYENLANQEQFSDDAHFSDNGMDSGFCSGATSTGQSASTSPAPVQLIPNPFFDPEAKTQSPVKLVDNPELFMESKKKSARISA,not soluble
12,MGHHHHHHSHMFIASKKSYFEAVYRSTVSSHSEEFWKSDDPVYFTQYKKQCNRLPNAYLGTLHSASKYSENFRHYVATFSNSPLDFPQSVFNERNPCEYSVPYLDSALQCSAKTLVGCSVSTTERNEYEVCKEATRCFKDAMSHKVLKVFLSNLSWFLKGHYKSKQAFLEPFQKQLILHSFMFVASIKCPETTTKLFDEFKFLLDMLYFDNTDLLTFLQKSPAFLIPRRHGKTWIVTAIISMLLTSVDDLHIGYVAHQKHVSLAVFLEISNILLAWFPRKNIDIKKENGVILYSHPGKKSSTLMCATCFNKNVSVI,not soluble
13,MGHHHHHHSHMFYLAAAVSDFYVPVSEMPEHKIQSSGGPLQITMKMVPKLLSPLVKDWAPKAFIISFKLETDPAIVINRARKALEIYQHQVVVANILESRQSFVFIVTKDSETKLLLSEEEIEKGVEIEEKIVDNLQSRHTAFIGDRN,not soluble
14,MGHHHHHHSHMIRDLEYYDSPILRKVAAPVTEITDELRQLVLDMSETMAFYKGVGLAAPQVGQSISLFIMGVERELEDGELVFCDFPRVFINPVITQKSEQLVYGNEGCLSIPGLRGEVARPDKITVSAKNLDGQQFSLALEGFLASIVMHETDHLHGVLYIDRMSDKDKTKQFKNNLEKIRRKYSILRGL,soluble
15,MGHHHHHHSHMKALLSIEMDMQVPFHDVDSMGITWHGNYLRYFEVARCKLLDELGYNYRQMRASNYAWPIIDVQIKYVKPSTFEQHITVRAELVEWENRLKINYQIRDTATGERITKGYTIQAAVDMTSQEMCFVTPEVFRSKIAPLLAKVDNE,soluble
16,MGHHHHHHSHMKKEHVLHCQFSAWYPFFRGVTIKSVILPLPQNVKDYLLDDGTLVVSGRDDPPTHSQPDSDDEAEEIQWSDDENTATLTAPEFPEFATKVQEPINSLGGSVFPKLNWSAPRDAYWIAMNSSLKCKTLSDIFLLFKSSDFITRDFTQPFIHCTDDSPDPCIEYELVLRKWCELIPGAEFRCFVKENKLIGISQRDYTQYYDHISKQKEEIRRCIQDFFKKHIQYKFLDEDFVFDIYRDSRGKVWLIDFNPFGEVTDSLLFTWEELISENNLNGDFSEVDAQEQDSPAFRCTNSEVTVQPSPYLSYRLPKDFVDLSTGRDAHKLIDFLKLKRNQQEDD,not soluble
17,MGHHHHHHSHMKKLICISLYEDLSMTTYDLSKVDNAELIGIVENASEGTLFVFTCDRPNGSSVIMCPGGGFLKTNLENEGIDFAEWFTKLGITYIVFKYRMPHGNPDVPEQDTRLALKVVREKFPEFCDKLGVMGASIGGYLATFSATLLPDDEKPDFQILMYPVVSVDDRLTHFPCRERMFGHSYSPDKMEQYSPIEHITSGTPAAFIVAAADDAVVSPLNGIMYAARLQKADIPISLHIYPAGGHGFGYNDSFVYKQEWLQELGEWLAKL,soluble
18,MGHHHHHHSHMKQVAVISGKGGTGKTTFSATIHALEGGVVADCDVDAPNLHILLKPQILKAEDFIASKKARIMPEKCSSCGLCYDLCRFGAVVAEDGYYVDEKKCEGCAFCFNVCPERAIEMENVKTGDLYVSKTEWGYFVHARLKPGEENTGRLVTEVKNRAKEIAEESNAEFLIVDSAPGVGCPVMASLTGVDAAIIVTEPTVSGLSDMLRILELCEHFRIRPFVVVNKFDLNVNIASEIESYCSENGVEFAGRVPFDKAIPEQIANLNFPFSGKAADKMVEIWKKLRE,not soluble
19,MGHHHHHHSHMLSPNPLNSRAVEDISSSRTNPYSYAMSTEEARFLTYHMWPLTFLSPSELARAGFYYIGPGDRVACFACGGKLSNWEPKDDAMSEHRRHFPNCPFLENSLETLRFSISNLSMQTHAARMRTFMYW,not soluble
20,MGHHHHHHSHMLSVHTDMASVTKAMAAPESGLEVRDRMWLKITIPNAFLGSDVVDWLYHHVEGFPERREARKYASGLLKAGLIRHTVNKITFSEQCYYVFGDLSGGCESYLVNLSLNDNDGSSGASDQDTLAPLPGATPWPLLPTF,soluble
21,MGHHHHHHSHMMPAERRLPLSFVLDVLEGRAQHPGVLYVQKQCSNLPSELPQLLPDLESHVPWASEALGKMPDAVNFWLGEAAAVTSLHKDHYENLYCVVSGEKHFLFHPPSDRPFIPYELYTPGTYQPSDRPFIPYELYTPATYQLTEEGTFKVVDEEAMEKVPWIPLDPLAPDLARYPSYSQAQALRCMVRAGEMLYLPALWFHHVQQSQGCIAVNFWYDMEYDLKYSYFQLLDSLTKASGLD,soluble
22,MGHHHHHHSHMNKDLLRRVLVLMNSKHTFLALCALRFMRRIIGLKDEFYNRYITKGNLFEPVINALLDNGTRYNLLNSAVIELFEFIRVEDIKSLTAHIVENFYKALESIEYVQTFKGLKTKYEQEKDRQNQKLNSVPSILRSNRFRRDAKALEEDEEMWFNEDEEEEGKAVVAPVEKPKPEDDFPDNYEKFMETKKAKESEDKENLPKRTSPGGFKFTFSHSASAANGTNSKSVVAQIPPATSNGSSSKTTNLPTSVTATKGSLVGLVDYPDDEEEDEEEESSPRKRPRLGS,not soluble
23,MGHHHHHHSHMPMYQVKPYHGGGAPLRVELPTCMYRLPNVHGRSYGPAPGAGHVQEESNLSLQALESRQDDILKRLYELKAAVDGLSKMIQTPDADLDVTNIIQADEPTTLTTNALDLNSVLGKDYGALKDIVINANPGSPPLSLLVLHRLLCEHFRVLSTVHTHSSVKSVPENLLKCFGEQNKKQPRQDYQLGFTLIWKNVPKTQMKFSIQTMCPIEGEGNIARFLFSLFGQKHNAVNATLIDSWVDIAIFQLKEGSSKEKAAVFRSMNSALGKSPWLAGNELTVADVVLWSVLQQIGGCSVTVPANVQRWMRSCENLAPFNTALKLLK,not soluble
24,MGHHHHHHSHMPTDNDLKAAILELLRDLDVLLVAHFYQKDEIVELAHYTGDSLELAKIASQSDKNLIVFCGVHFMGESVKALAFDKQVIMPKLSCCSMARMIDSHYYDRSVHLLKECGVKEFYPITYINSNAEVKAKVAKDDGVVCTSRNASKIFNHALKQNKKIFFLPDKCLGENLALENGLKSAILGANSQEEIKNADVVCYNGFCSVHQLFKLEDIEFYRQKYPDILIAVHPECEPSVVSNADFSGSTSQIIEFVEKLSPNQKVAIGTESHLVNRLKAKRHHQNTFILSSTLALCPTMNETTLKDLFEVLKAYKNHRAYNTIELKDEVARLAKLALTKMMELS,not soluble
25,MGHHHHHHSHMRIVMKFGGVSVKDGENIYHCANLVKKFSEGNEVVVVVSAMQGVTDALLKAAHRCCSEPSAGFIKMFIADMMKRHYEAIEYAVRNDEIKAKVIAAVERLLDELEKVLLGISYLGELTRRSEDYIVSFGERLSAPIFSAALLSLGVDSVALTGGDAGIITDRNFGRAKPLPGVYTTIRNRLEPLLTIKKTIPVVTGFIGATDDGSITTLGRGGSDYTATILAAALDADEVWLWKEVDGIMTCDPKYVPNARVIPEISYQEAMELSHFGAKILHPRALEPVMRKNIPVRIKN,not soluble
26,MGHHHHHHSHMRKLVIPKYYGRPSIGLALFGCTNRPFYHVCVFPDRALGRRYEGNILEQVGTFDPLPNQKNEKLVALNFGRLKYWIGERNAHISVPVLELLGERRNCLSGLFPIHPKSFIRAKDNRALIADQQLKVAAEAAEAEKVAQEQASTGAAATSHPQ,soluble
27,MGHHHHHHSHMSSKHDYTNPPWNAKVPVQRAMQWMPISQKAGAAWGVDPQLITAIIAIESGGNPNAVSKSNAIGLMQLKASTSGRDVYRRMGWSGEPTTSELKNPERNISMGAAYLNILETGPLAGIEDPKVLQYALVVSYANGAGALLRTFSSDRKKAISKINDLDADEFLEHVARNHPAPQAPRYIYKLEQALDAM,soluble
